Measured values: patent EP1149909A1

Biological target: ClpA (E. coli) (UniProt P0ABH9)
Test: cell-based or functional assay

Chain of UniProt P0ABH9 (P0ABH9 whole entry): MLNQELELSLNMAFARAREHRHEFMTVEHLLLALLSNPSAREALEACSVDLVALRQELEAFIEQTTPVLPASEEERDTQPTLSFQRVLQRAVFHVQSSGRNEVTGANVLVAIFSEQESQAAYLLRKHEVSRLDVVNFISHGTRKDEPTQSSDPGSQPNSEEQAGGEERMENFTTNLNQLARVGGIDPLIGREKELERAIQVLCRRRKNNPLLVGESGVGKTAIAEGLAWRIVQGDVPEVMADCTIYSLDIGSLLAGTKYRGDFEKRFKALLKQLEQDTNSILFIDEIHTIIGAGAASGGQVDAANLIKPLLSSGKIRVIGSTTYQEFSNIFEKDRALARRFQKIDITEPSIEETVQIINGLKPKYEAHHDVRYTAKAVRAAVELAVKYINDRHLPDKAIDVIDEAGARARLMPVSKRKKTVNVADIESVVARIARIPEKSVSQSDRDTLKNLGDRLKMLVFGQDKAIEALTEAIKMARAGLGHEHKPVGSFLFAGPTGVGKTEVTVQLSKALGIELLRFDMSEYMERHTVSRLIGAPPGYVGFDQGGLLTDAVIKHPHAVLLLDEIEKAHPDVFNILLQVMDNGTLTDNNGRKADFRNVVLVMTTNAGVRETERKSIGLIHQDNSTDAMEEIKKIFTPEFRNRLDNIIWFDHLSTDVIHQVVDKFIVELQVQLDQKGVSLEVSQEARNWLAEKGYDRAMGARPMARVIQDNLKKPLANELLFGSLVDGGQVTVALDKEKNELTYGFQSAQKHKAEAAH

## ClpS
  MDH activity (reactivation of heat-aggregated malate dehydrogenase), rate and yield: > 2 fold
